Data published in patent US6001823A, “Treatment or prophylaxis of diseases caused by pilus-forming bacteria” (priority 1995, dated 1999).
“Also recorded” adds a separate entry of the source.

Assays:
PapD [1] = target: T1, PapD (Escherichia coli, UniProt P15319); test: ELISA: PapD binding to peptides coated on microtiter wells; parameters: made in house; species or system E. coli; settings: for binding of PapD to immobilized peptide: peptide coated on microtiter wells, ELISA; for reduction of binding of PapD to the immobilized peptide: variant of the PapG carboxyl terminal peptide
T1 sequence (P15319 22-239): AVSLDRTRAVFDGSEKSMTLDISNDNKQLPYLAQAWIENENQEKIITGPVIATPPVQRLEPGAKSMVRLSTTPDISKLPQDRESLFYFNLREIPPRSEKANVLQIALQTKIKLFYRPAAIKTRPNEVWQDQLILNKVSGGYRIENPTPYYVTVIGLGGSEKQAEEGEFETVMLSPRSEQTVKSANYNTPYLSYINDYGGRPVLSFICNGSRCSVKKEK
Procedure: The residues in the peptides were numbered starting with the carboxyl terminal residue as 1, and ending with the amino terminal residue. Peptides were also synthesized which deviated in length (G1'-16'WT, G1'-11'WT, G1'-7'WT) or sequence (G2'-21'amide, G1'-19'SV, G1'-19'NH2) from the wild type PapG carboxyl terminal sequence. Using an enzyme-linked immunosorbent assay (ELISA), we tested the ability of PapD to bind to each peptide coated on wells of microtiter plates:
5 mg/ml stock solutions of peptides in water or 50% acetic acid were diluted to a concentration of 2.5 pmol/50 μl in PBS. 50 μl of the peptide solution was coated overnight onto microtiter wells (Nunc-Immuno Plate Maxisorp) at 4° C. The solutions in the plates were discarded, and the wells were blocked with 200 μl 3% bovine serum albumin (BSA, Sigma) in PBS (120 mM NaCl/2.7 mM KCl/10 mM phosphate buffer salts, pH 7.4) for 2 hours at 25° C. The plates were washed vigorously 3 times with PBS and incubated with 50 μl of the indicated amount of purified PapD (Lindberg et al, 1989). After 3 washes with PBS, the wells were incubated with a 1:500 dilution of anti-PapD rabbit antiserum (Lindberg et al, 1989) in 3% BSA/PBS for 45 min. at 25° C. After 3 washes with PBS, the wells were incubated with a 1:1000 dilution of goat anti-rabbit IgG coupled to alkaline phosphatase (Sigma) in 3% BSA/PBS for 45 min. at 25° C. Following 3 washes with PBS and 3 washes with developing buffer (10 mM diethanolamine pH 9.5, 0,5 mM MgCl2), 50 μl filtered p-nitrophenyl phosphate substrate (Sigma) in developing buffer (10 mg/ml) was added. The absorbance at 405 nm was read after 60 min of incubation in the dark at 25° C.

PapD [2] = target: T1, PapD; test: Soluble inhibition ELISA: peptide inhibition of PapD binding to G1'-19'WT-coated wells; parameters: made in house; species or system E. coli; settings: for inhibition of PapD binding to immobilized G1'-19'WT by soluble peptide: peptide in solution; for % Inhibition: 25-fold molar excess of peptide, 100 pmol/well PapD, G1'-19'WT-coated wells
Procedure: In addition, the ability of water-soluble peptides to inhibit PapD binding to G1'-19'WT-coated wells in a soluble inhibition ELISA were tested, since peptide conformations may have been affected by binding to the plastic microtiter plates:
Microtiter wells were coated overnight at 4° C. with 50 μl of 2,5 pmol/50 μl of the G1'-19'WT peptide. The wells were washed with PBS and blocked with 3% bovine serum albumin (BSA). A 25-fold molar excess of each test peptide was pre-incubated with 100 pmoles PapD for 30 min. and the PapD-peptide solution was then added to the coated wells and incubated at 25° C. for 45 min in the presence of 3% BSA/PBS. The subsequent primary antibody, secondary antibody and developing steps are described above. The ability of the peptides to inhibit binding of PapD to the G1'-19'WT peptide was calculated by dividing the amount of PapD binding in the presence of peptide with the amount of PapD binding in the presence of water. 0% inhibition includes values where binding was greater than that of PapD pre-incubated with H2 O.
The % inhibition represents the percentage of PapD binding in the presence of the peptide compared to in the presence of water and are the average of two experiments performed duplicate: […]

[3] = Water solubility of peptides; assay type: physicochemical; parameters: key: *: Water insoluble peptides
PapD-PapG complex = target: T2, PapD-PapG complex (Escherichia coli, UniProt P15319); test: Reconstitution assay: restoration of PapD-PapG complex from reduced, denatured PapG; assay type: biochemical, E. coli; settings: PapD incubated with increasing amounts of peptide
T2 construct: made in house
T2 sequence (P15319 22-239): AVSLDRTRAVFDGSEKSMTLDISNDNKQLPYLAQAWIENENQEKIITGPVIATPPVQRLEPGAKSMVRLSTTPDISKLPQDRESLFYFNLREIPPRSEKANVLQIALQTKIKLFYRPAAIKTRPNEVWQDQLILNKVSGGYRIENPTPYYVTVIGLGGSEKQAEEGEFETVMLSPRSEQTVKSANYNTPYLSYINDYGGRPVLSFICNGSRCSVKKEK
Procedure: B: PapD incubated with the G1'-19'WT, G1'-16'WT, K1'-19'WT, and G2'-21'amide was added to reduced, denatured PapD-PapG and the amount of PapD-PapG complex restored in each sample was quantitated as described in example 2. The % inhibition represents the amount of the PapD-PapG complex restored with peptide-treated PapD compared to the amount of PapD-PapG complex restored with untreated PapD. The graph represent the average of 4 experiments. PapD and PapD-PapG complex were prepared as described in F. Lindberg et al, J. Bacteriol. 171, 6052 (1989) and S. J. Hultgren et al., Proc. Natl. Acad. Sci. U.S.A. 86, 4357 (1989).
FIG. 7: Ability of PapD Arg-8, Lys-112 and Thr-7 mutants to bind PapG and restore the PapD-PapG complex in vitro. 0.4 μg of PapD-PapG complex was reduced and denatured as described in FIG. 2B. The denatured PapD-PapG complex was then diluted with 0-630 ng purified wild type (WT) or mutant PapD. The amount of PapD-PapG restored in the samples was determined as in FIG. 2B and was graphed as a percentage of the greatest amount of PapD-PapG restored. The values graphed represent the average of 3 experiments. Wild type and mutant PapD and the PapD-PapG complex were purified as described in F. Lindberg et al, J. Bacteriol. 171, 6052 (1989) and S. J. Hultgren et al., Proc. Natl. Acad. Sci. U.S.A. 86, 4357 (1989).
As described in Kuehn et al., Proc. Natl. Acad. Sci. U.S.A. 88, 10586 (1991), native PapD is able to bind to reduced, denatured PapG and restore the PapD-PapG complex in vitro. This reconstitution assay was used to determine the ability of the peptides to inhibit PapD activity in vitro.
The PapD-peptide solution was then added to the reduced, denatured PapD-PapG, incubated at 25° C. for 10 min, and applied to an IEF 3-9 gel (Pharmacia). The amount of PapD-PapG restored in each sample was quantitated by densitometry of the silver stained IEF band corresponding to the pI of the DG complex.

PapD [4] = target: T1, PapD; test: Protection of PapD against tryptic cleavage by peptides; assay type: biochemical, E. coli; parameters: made in house; settings: PapD preincubated with 20-fold molar excess of peptide
Procedure: A Lower: The rate of trypsin cleavage of PapD decreased upon preincubation with the G1'-19'WT, G1'-16'WT or K1'-19'WT peptides, but the G2'-21'amide peptide had no effect. 50 μg of purified PapD was preincubated for 15 min at 25° C. with a 20-fold molar excess of G1'-19'WT, G1'-16'WT, K1'-19'WT or G2'-21'amide peptides (any trypsin cleavage sites in these peptides occur at their amino termini where they were predicted not to interfere with PapD), or an equivalent volume of water. Each sample was then incubated at 37° C. with 3.2 μg of trypsin. Aliquots were removed after 0, 5, 10, 20, 30 and 40 min and boiled in SDS-PAGE sample buffer to stop the digestion. The samples were applied to 15% SDS-PAGE gels and the amount of full-length PapD remaining was determined by densitometry of Coomassie blue stained bands corresponding to full-length PapD which are shown.
400 μg of PapD was partially digested by incubation with either 4,5 μg trypsin or 0.45 μg chymotrypsin on PBS for 20 min. at 37° C. The PapD digests were applied to a C-18 HPLC column (Beckman) and 2 major fragments were eluted with a 0-100% acetonitrile gradient in 0.01% trifluoroacetic acid. The PapD fragments were identified by their molecular weight on SDS-PAGE and amino-terminal sequencing. The N-terminal amino acid sequences of the approximately 14 kDa tryptic and chymotryptic fragments were identified as residues 100-108 and 104-109 of PapD, respectively, corresponding to cleavage after Lys-99 (for trypsin) and Leu-103 (for chymotrypsin). The N-terminal sequences of the 11 and 12 kDa bands in the digests were identical to the N-terminal sequence of PapD.

PapD [5] = target: T1, PapD; test: ELISA: peptide inhibition of PapD binding to MBP-G1'-140' fusion protein; parameters: species or system E. coli; settings: PapD preincubated with peptide at 1:25 ratio
Procedure: The ability of the peptides to inhibit the binding of PapD to the MBP-G1'-140' fusion protein was then investigated using the following ELISA test:
Stock solutions of MBP-G1'-140' proteins in PBS were diluted to 0.1 μM with PBS. The wells of microtiter plates were coated with 50 μl of the protein solutions overnight at 4° C. The wells were washed with PBS, and blocked with 200 μl of 3% bovine serum albumin (BSA) in PBS for 2 hours at 25° C. The plates were washed vigorously three times with PBS and incubated with 50 μl of 1-5 μM PapD proteins in 3% BSA-PBS for 45 minutes at 25° C. The PapD was preincubated with each of the peptides at a 1:25 ratio for 30 min before being added to the wells. After three washings with PBS, the wells were incubated with a 1:500 dilution of rabbit anti-PapD antiserum in 3% BSA-PBS for 45 minutes at 25° C. After three washings with PBS, the wells were incubated with a 1:1000 dilution of goat antiserum to rabbit IgG coupled to alkaline phosphatase in 3% BSA-PBS for 45 minutes at 25° C. After three washings with PBS and three washings with developing buffer (10 mM diethanolamine, 0.5 mM MgCl2), 50 μl filtered 1 mg/ml p-nitrophenyl phosphate in developing buffer was added, the reaction was incubated for 1 hour or longer if necessary in the dark at 25° C., and the absorbance at 405 nm was read.

HB101/pPAP37 = test: Hemagglutination titer of PapD mutants; assay type: cell-based, E. coli; settings: induction with 0.01 mM IPTG; greatest bacterial dilution which still agglutinates erythrocytes
Procedure: *The hemagglutionation (HA) titer was quantitated after induction with
0.01 mM IPTG. The HA titer represents the greatest bacterial dilution
which still agglutinates erythrocytes. HB101/pPAP37 expressing wild type
PapD has an HA titer of 128.

## NH2--GILNGGDFQTTASMAMIYN--COOH (H-GILNGGDFQTTASMAMIYN-OH) [F1'-19'WT]
PapD [1]
  binding of PapD to immobilized peptide: moderately

## NH2--GKRKPVELSGSMTMVLSSP--COOH (H-GKRKPVELSGSMTMVLSSP-OH) [G1'-19'SV]
PapD [1]
  reduction of binding of PapD to the immobilized peptide: 36%
PapD [2]
  inhibition of PapD binding to immobilized G1'-19'WT by soluble peptide: as efficient a soluble PapD inhibitor as the peptide G1'-19'WT

## NH2--QNLIAGPFSATATLVASYS--COOH (H-QNLIAGPFSATATLVASYS-OH) [E1'-19'WT]
PapD [1]
  binding of PapD to immobilized peptide: moderately
[3]
  water solubility: *

## NH2--GKRKPGELSGSMTMVLSFP--COOH (H-GKRKPGELSGSMTMVLSFP-OH) [G1'-19'WT, 19 carboxyl terminal residues of PapG]
PapD [1]
  binding of PapD to immobilized peptide: bound well
PapD [2]
  % Inhibition: 63%
PapD-PapG complex
  inhibition of restoration of the PapD-PapG complex by PapD: inhibit restoration
PapD [4]
  rate of tryptic cleavage of PapD: decreased; also recorded: reduced the rate of tryptic cleavage

## NH2--EEGKRKPGELSGSMTMVLSF--CONH2 (H-EEGKRKPGELSGSMTMVLSF-NH2) [G2'-21'amide]
PapD [1]
  binding of PapD to immobilized peptide: reduced binding
  reduction of binding of PapD to the immobilized peptide: approximately 75%
PapD [2]
  % Inhibition: 0%
  inhibition of PapD binding to immobilized G1'-19'WT by soluble peptide: abolished binding
PapD-PapG complex
  inhibition of restoration of the PapD-PapG complex by PapD: no effect
PapD [4]
  rate of tryptic cleavage of PapD: no effect

## NH2--KSVVPGDYEATATFELTYR--COOH (H-KSVVPGDYEATATFELTYR-OH) [K1'-19'WT]
PapD [1]
  binding of PapD to immobilized peptide: moderately
PapD-PapG complex
  inhibition of restoration of the PapD-PapG complex by PapD: inhibit restoration
PapD [4]
  rate of tryptic cleavage of PapD: decreased; also recorded: reduced the rate of tryptic cleavage

## H-SGSMTMVLSFP-OH [G1'-11'WT, NH2--SGSMTMVLSFP--COOH]
PapD [1]
  binding of PapD to immobilized peptide: binds
PapD [5]
  inhibition of binding of PapD to MBP-G1'-140' fusion protein: significantly more potent
[3]
  water solubility: *

## NH2--YALAPNAVIPTSLALL--COOH (H-YALAPNAVIPTSLALL-OH) [MS, random hydrophobic peptide, reference compound]
PapD [1]
  binding of PapD to immobilized peptide: no binding
PapD [2]
  % Inhibition: 1%

## NH2--KKLEAGNYFAVLGFRVDYE--COOH (H-KKLEAGNYFAVLGFRVDYE-OH) [H1'-19'WT]
PapD [1]
  binding of PapD to immobilized peptide: no binding

## NH2--GKRKPGELSGSMTMVLSFP--CONH2 (H-GKRKPGELSGSMTMVLSFP-NH2) [G1'-19'amide]
PapD [1]
  binding of PapD to immobilized peptide: did not affect binding
PapD [2]
  % Inhibition: 56%
  inhibition of PapD binding to immobilized G1'-19'WT by soluble peptide: did not affect binding

B1: wild type PapD: wild type periplasmic chaperone PapD (protein, UniProt P15319 22-239, looked up)
Chaperone protein PapD: AVSLDRTRAVFDGSEKSMTLDISNDNKQLPYLAQAWIENENQEKIITGPVIATPPVQRLEPGAKSMVRLSTTPDISKLPQDRESLFYFNLREIPPRSEKANVLQIALQTKIKLFYRPAAIKTRPNEVWQDQLILNKVSGGYRIENPTPYYVTVIGLGGSEKQAEEGEFETVMLSPRSEQTVKSANYNTPYLSYINDYGGRPVLSFICNGSRCSVKKEK
HB101/pPAP37
  HA titer: 128
